Assay results as given in patent US20220169722A1 (WUXI BIOLOGICS IRELAND, published 2022).
Substitutions are numbered along the chain they refer to. Read-outs that look alike come from different tables or passages of the source. Values belong to the binder of their own block, whether it stands above or below them.

Tests used:
[1] = target: T1, mouse Fc (mFc)-tagged human LAG-3 (human, UniProt P18627 23-450); test: ELISA blocking: antibody pre-mixed with mFc-tagged human LAG-3, added to plates coated with human LSECtin (blocked ligand); detection goat anti-mouse IgG Fc-HRP
T1 construct: extracellular domain
T1 sequence (looked up): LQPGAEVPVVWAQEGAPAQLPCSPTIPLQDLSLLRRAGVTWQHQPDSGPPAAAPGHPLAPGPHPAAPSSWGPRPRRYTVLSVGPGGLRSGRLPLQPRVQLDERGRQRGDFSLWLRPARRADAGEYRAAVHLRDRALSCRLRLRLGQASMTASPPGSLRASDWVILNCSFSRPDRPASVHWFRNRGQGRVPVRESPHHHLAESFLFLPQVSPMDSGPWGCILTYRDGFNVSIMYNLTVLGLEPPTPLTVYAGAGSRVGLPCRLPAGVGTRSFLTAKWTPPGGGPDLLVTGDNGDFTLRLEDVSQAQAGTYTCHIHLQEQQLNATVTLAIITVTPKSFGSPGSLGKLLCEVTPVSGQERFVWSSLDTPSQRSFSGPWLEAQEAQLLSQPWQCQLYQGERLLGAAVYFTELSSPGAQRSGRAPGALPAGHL
Procedure: (§1) 96-well plates were coated with human LSECtin or Galectin-3 at 0.5 μg/ml overnight at 4° C., respectively. […] After blocking and washing, the mixture was transferred to the plates and incubated at room temperature for 1 h. The plates were then washed and subsequently incubated with the secondary antibody goat-anti Mouse IgG Fc-HRP for 1 h. After washing, TMB substrate was added and the color reaction was stopped by 2M HCl. The absorbance at 450 nm was read using a microplate reader.

[2] = target: T2, human LAG-3 on transfected cells (human, UniProt P18627 23-525); test: FACS, serial dilutions on human LAG-3 transfected cells, PE-labeled secondary antibody
T2 construct: whole, on cells; Flp-In-293 or CHO-K1 cells transfected with full length human LAG-3; also called cell surface human LAG-3
T2 sequence (looked up): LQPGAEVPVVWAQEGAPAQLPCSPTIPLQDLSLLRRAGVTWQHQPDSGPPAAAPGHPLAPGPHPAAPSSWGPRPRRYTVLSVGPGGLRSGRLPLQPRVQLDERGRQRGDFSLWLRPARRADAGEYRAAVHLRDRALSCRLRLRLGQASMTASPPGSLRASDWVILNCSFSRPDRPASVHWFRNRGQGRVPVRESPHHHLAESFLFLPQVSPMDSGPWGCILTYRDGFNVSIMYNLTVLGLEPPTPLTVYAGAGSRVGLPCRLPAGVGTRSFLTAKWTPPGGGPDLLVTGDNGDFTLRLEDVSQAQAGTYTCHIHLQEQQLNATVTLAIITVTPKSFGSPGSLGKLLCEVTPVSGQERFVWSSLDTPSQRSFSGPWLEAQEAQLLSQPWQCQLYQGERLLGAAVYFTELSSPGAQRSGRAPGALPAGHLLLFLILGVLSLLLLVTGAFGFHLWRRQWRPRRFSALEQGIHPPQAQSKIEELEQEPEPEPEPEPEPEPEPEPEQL

[3] = target: T2, human LAG-3 on transfected cells; test: FACS affinity on transfected cells
[4] = target: T3, mouse LAG-3 on transfected cells (mouse, UniProt Q61790 24-521); test: FACS affinity on transfected cells
T3 construct: whole, on cells; Flp-In-CHO cells transfected with mouse LAG-3; also called cell surface mouse LAG-3; murine LAG-3
T3 sequence (looked up): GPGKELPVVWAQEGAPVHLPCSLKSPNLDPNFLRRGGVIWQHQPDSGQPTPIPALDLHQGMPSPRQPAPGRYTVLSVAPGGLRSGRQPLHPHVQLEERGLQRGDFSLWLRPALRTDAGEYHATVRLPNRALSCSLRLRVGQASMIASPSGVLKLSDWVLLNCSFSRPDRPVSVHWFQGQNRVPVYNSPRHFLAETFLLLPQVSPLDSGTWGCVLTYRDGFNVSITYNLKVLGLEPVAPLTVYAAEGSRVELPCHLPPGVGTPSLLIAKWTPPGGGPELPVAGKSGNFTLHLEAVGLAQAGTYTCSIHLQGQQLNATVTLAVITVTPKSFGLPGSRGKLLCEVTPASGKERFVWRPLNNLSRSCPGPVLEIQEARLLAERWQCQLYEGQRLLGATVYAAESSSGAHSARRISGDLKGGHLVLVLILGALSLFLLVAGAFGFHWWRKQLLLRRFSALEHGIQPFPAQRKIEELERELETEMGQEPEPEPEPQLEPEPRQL

[5] = target: T4, cynomolgus LAG-3 on transfected cells (cynomolgus monkey); test: FACS affinity on transfected cells
T4 construct: whole, on cells; 293F cells transfected with cynomolgus LAG-3; also called cell surface cynomolgus LAG-3; monkey LAG-3

[6] = target: T1, mouse Fc (mFc)-tagged human LAG-3; test: FACS blocking: antibody pre-mixed with mFc-tagged human LAG-3, added to Raji cells; blocked ligand: human MHC-II on Raji cells; detection goat anti-mouse IgG Fc-PE
Procedure: (§2) The mixture was transferred into the 96-well plates seeded with Raji cells. Goat anti-mouse IgG Fc-PE antibody was used to detect the binding of LAG-3 protein to Raji cells. The mean fluorescence intensity (MFI) was evaluated by flow cytometry and analyzed by FlowJo.

[7] = target: T5, mouse LAG-3 protein (SPR analyte) (mouse, UniProt Q61790 24-442); test: SPR Biacore 8K, Ab captured on anti-human Fc, LAG-3 as analyte
T5 construct: extracellular domain
T5 sequence (looked up): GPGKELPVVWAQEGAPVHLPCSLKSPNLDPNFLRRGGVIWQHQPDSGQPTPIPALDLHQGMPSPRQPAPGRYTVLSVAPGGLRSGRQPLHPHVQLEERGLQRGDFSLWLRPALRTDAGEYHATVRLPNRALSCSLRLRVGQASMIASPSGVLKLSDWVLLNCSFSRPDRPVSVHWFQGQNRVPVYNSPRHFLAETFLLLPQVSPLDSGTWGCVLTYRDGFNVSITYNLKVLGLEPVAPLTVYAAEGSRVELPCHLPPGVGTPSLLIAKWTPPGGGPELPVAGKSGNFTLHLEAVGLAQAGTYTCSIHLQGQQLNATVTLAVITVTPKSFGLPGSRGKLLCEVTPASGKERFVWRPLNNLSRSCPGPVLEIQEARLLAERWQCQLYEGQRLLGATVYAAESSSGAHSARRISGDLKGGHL

[8] = target: T6, human LAG-3 protein (SPR analyte) (human, UniProt P18627 23-450); test: as above
T6 construct: extracellular domain
T6 sequence (looked up): T1 sequence (looked up)

[9] = target: T1, mouse Fc (mFc)-tagged human LAG-3; test: ELISA blocking: antibody pre-mixed with mFc-tagged human LAG-3, added to plates coated with human LSECtin (blocked ligand); detection goat anti-mouse IgG Fc-HRP; remark: listed apart in the source
Procedure: as §1

[10] = target: T1, mouse Fc (mFc)-tagged human LAG-3; test: ELISA blocking: antibody pre-mixed with mFc-tagged human LAG-3, added to plates coated with human Galectin-3 (blocked ligand); detection goat anti-mouse IgG Fc-HRP
Procedure: as §1

[11] = target: T2, human LAG-3 on transfected cells; test: FACS on human LAG-3 transfected cells with serum-treated antibody, PE-labeled goat anti-human IgG
Procedure: On indicated time points (day 0, day 1, day 4, day 7 and day 14), an aliquot of serum treated sample were removed from the incubator and snap frozen in liquid N2, and then stored at −80° C. until ready for test. All the samples were quickly thawed prior to the stability test. […] MFI of the cells was measured by a flow cytometry and analyzed by FlowJo.

[12] = target: T2, human LAG-3 on transfected cells; test: FACS affinity on transfected cells; remark: listed apart in the source
[13] = target: T4, cynomolgus LAG-3 on transfected cells; test: FACS affinity on transfected cells; remark: listed apart in the source
[14] = target: T4, cynomolgus LAG-3 on transfected cells; test: FACS on cynomolgus LAG-3 transfected cells
Procedure: (§3) Similarly, cross-reactivity to cynomolgus or murine LAG-3 was tested by FACS with cyno or murine LAG-3 transfected cell lines.

[15] = target: T1, mouse Fc (mFc)-tagged human LAG-3; test: ELISA blocking: antibody pre-mixed with mFc-tagged human LAG-3, added to plates coated with human Galectin-3 (blocked ligand); detection goat anti-mouse IgG Fc-HRP; remark: listed apart in the source
Procedure: as §1

human CD4 = human CD4 (human, UniProt P01730 26-390, limits assumed); test: ELISA, plates coated with human CD4, goat anti-human IgG Fc-HRP
Procedure: Cross-reactivity to human CD4 was measured by ELISA. Plates were coated with human CD4 at 1 μg/ml overnight at 4° C. After blocking and washing, 1 μg/ml of LAG-3 antibodies were added to the plates and incubated at room temperature for 1 h. The plates were then washed and subsequently incubated with goat-anti human IgG Fc-HRP for 45 min. After washing, TMB substrate was added and the color reaction was stopped by 2M HCl. The absorbance at 450 nm was read using a microplate reader.

[16] = target: T5, mouse LAG-3 protein (SPR analyte); test: SPR Biacore 8K, Ab as ligand, LAG-3 as analyte
[17] = target: T6, human LAG-3 protein (SPR analyte); test: SPR Biacore 8K, Ab as ligand, LAG-3 as analyte
[18] = target: T1, mouse Fc (mFc)-tagged human LAG-3; test: FACS blocking: antibody pre-mixed with mFc-tagged human LAG-3; blocked ligand: cell surface human MHC-II (paragraph 254 says 'on A20 cells' for this figure); the column head on the sheet reads 'EC50 (nM)', the text calls the value IC50
Procedure: as §2

[19] = target: T4, cynomolgus LAG-3 on transfected cells; test: FACS, serial dilutions on cynomolgus LAG-3 transfected cells, PE-labeled secondary antibody
Procedure: as §3

mFc-tagged mouse LAG-3 = target: T7, mFc-tagged mouse LAG-3 (mouse, UniProt Q61790 24-442); test: FACS competition; blocks mFc-mouse LAG-3 binding to MHC-II on A20 cells
T7 construct: extracellular domain; also called mFc-tagged mouse protein
T7 sequence (looked up): T5 sequence (looked up)

[20] = target: T3, mouse LAG-3 on transfected cells; test: FACS on mouse LAG-3 transfected cells
Procedure: as §3

- IC50 [1]: 1.81 nM
- EC50 [2]: 0.364 nM
- Bmax [3]: 250 pM
- Kd [3]: 0.81 nM
- Bmax [4]: 57 pM
- Kd [4]: 0.057 nM
- Bmax [5]: 280 pM
- Kd [5]: 3.3 nM
- IC50 [6]: 0.84 nM
- Kd [7]: < 0.00122 nM
- koff [7]: < 1e-06 s⁻¹
- kon [7]: 819000 M⁻¹ s⁻¹
- Kd [8]: 0.162 nM
- koff [8]: 2.7e-05 s⁻¹
- kon [8]: 166000 M⁻¹ s⁻¹
- IC50 [9]: 0.642 nM
- IC50 [10]: 1.86 nM
- EC50 (read off the curve) [11]: ~0.1 nM
- Bmax [12]: 54 pM
- Kd [12]: 0.46 nM
- Bmax [13]: 380 pM
- Kd [13]: 6.3 nM
- EC50 [14]: 2.34 nM
- IC50 [15]: 0.926 nM
- binding result (human CD4): no binding (tested: 66.7 nM)
- Kd [16]: 0.00227 nM
- koff [16]: 2.31e-06 s⁻¹
- kon [16]: 1.02e+06 M⁻¹ s⁻¹
- Kd [17]: 0.183 nM
- koff [17]: 2.73e-05 s⁻¹
- kon [17]: 149000 M⁻¹ s⁻¹
- IC50 [18]: 1.78 nM
- EC50 [19]: 2.34 nM
- IC50 (mFc-tagged mouse LAG-3): 2.9 nM
- EC50 [20]: 0.1 nM
B1: W3396-R2-1 (Fc fusion)
VHH: QVQLVESGGGVVQPGGSLRLSCAASGLTLSQYTMGWFRQAPGKERELVAAIHWTSSVTDYADSVYGRFTISRDDSKNTGYLQMNSLRAEDTAVYYCAATWYYTHRGSFDYWGQGTLVTVSS

- Bmax [3]: 200 pM
- Kd [3]: 0.92 nM
- Bmax [4]: 53 pM
- Kd [4]: 0.054 nM
- Bmax [5]: 310 pM
- Kd [5]: 5 nM
- IC50 [6]: 0.46 nM
- Kd [7]: < 0.000952 nM
- koff [7]: < 1e-06 s⁻¹
- kon [7]: 1.05e+06 M⁻¹ s⁻¹
- Kd [8]: 4.06 nM
- koff [8]: 0.000197 s⁻¹
- kon [8]: 48400 M⁻¹ s⁻¹
- IC50 [9]: 0.797 nM
- EC50 (read off the curve) [11]: ~0.2 nM
- EC50 [14]: 2.16 nM
- IC50 [15]: 1.29 nM
- binding result (human CD4): no binding (tested: 66.7 nM)
- EC50 [19]: 2.16 nM
- IC50 (mFc-tagged mouse LAG-3): 2.4 nM
B2: W3396-R2-13 (Fc fusion)
VHH: B1 VHH with Y65R

- IC50 [1]: 1.61 nM
- EC50 [2]: 0.228 nM
- IC50 [10]: 1.23 nM
- Kd [12]: 0.46 nM
- Bmax [13]: 300 pM
- binding result (human CD4): no binding (tested: 33.4 nM)
- Kd [16]: < 0.000575 nM
- Kd [17]: 0.165 nM
- EC50 [20]: 0.13 nM
B3: W3396-R2-2 (Fc fusion)
VHH: B1 VHH with W100H, S107P
